Where “and” joins values, the source holds several entries; their conditions need not be identical. Identical values can stand only once.
T1: CTCF ZF1-11 (human, UniProt P49711 266-577)
T1 sequence: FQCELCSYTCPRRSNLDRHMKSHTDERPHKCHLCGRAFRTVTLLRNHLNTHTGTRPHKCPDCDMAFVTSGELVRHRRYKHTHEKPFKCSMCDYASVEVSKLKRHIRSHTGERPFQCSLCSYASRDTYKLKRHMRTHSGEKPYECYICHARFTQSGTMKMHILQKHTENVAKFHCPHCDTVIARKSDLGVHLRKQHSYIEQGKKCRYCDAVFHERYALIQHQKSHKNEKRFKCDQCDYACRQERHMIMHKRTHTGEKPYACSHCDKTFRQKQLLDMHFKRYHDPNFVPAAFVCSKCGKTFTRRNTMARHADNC

T2: CTCF FL (human, UniProt P49711 1-727)
T2 sequence: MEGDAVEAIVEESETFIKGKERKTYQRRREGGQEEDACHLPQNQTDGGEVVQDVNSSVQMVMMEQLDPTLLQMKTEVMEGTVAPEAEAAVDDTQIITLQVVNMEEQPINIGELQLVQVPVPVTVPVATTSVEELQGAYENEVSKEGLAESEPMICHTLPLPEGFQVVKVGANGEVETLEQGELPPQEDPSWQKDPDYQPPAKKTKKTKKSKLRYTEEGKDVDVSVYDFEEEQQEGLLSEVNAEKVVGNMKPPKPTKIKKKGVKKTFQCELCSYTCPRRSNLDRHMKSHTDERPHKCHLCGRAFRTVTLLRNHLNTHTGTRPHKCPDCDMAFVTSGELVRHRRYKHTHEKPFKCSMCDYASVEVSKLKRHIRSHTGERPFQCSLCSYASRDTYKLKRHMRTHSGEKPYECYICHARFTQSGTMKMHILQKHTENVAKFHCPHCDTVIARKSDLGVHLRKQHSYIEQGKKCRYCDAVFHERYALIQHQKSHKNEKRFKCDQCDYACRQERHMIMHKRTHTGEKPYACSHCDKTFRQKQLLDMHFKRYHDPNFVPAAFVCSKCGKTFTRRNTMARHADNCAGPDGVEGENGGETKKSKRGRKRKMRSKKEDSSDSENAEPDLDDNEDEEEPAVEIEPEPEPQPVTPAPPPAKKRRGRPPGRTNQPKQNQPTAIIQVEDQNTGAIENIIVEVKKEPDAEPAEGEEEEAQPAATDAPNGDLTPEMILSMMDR

B1: H19 full 5hmC (dsDNA)
DNA 1: GTTGCCGCGTGGTGGCAG
DNA 2: CTGCCACCACGCGGCAAC
modifications: 5hmC C2 both strands
B2: H19 motif strand 5hmC (dsDNA)
DNA 1: GTTGCCGCGTGGTGGCAG
DNA 2: CTGCCACCACGCGGCAAC
modifications: 5hmC motif strand C2
B3: Telo-CTCF (dsDNA)
DNA 1: TCCCCACCAGGGGGAGCAC
DNA 2: GTGCTCCCCCTGGTGGGGA
B4: Cen-CTCF unmethylated (dsDNA)
DNA 1: AGGCCGCCAGAGAGCGCCC
DNA 2: GGGCGCTCTCTGGCGGCCT
B5: H19 unmethylated (dsDNA)
DNA 1: GTTGCCGCGTGGTGGCAG
DNA 2: CTGCCACCACGCGGCAAC
B6: Negative control (dsDNA)
DNA 1: AAGACGATTCTGGATTGTA
DNA 2: TACAATCCAGAATCGTCTT
B7: Cen-CTCF opposite C12 5mC (dsDNA)
DNA 1: AGGCCGCCAGAGAGCGCCC
DNA 2: GGGCGCTCTCTGGCGGCCT
modifications: 5mC opposite strand C12
B8: H19 full methylation (dsDNA)
DNA 1: GTTGCCGCGTGGTGGCAG
DNA 2: CTGCCACCACGCGGCAAC
modifications: 5mC C2 both strands
B9: Cen-CTCF opposite C2+C12 5mC (dsDNA)
DNA 1: AGGCCGCCAGAGAGCGCCC
DNA 2: GGGCGCTCTCTGGCGGCCT
modifications: 5mC opposite strand C2, C12
B10: Cen-CTCF motif C12 5mC (dsDNA)
DNA 1: AGGCCGCCAGAGAGCGCCC
DNA 2: GGGCGCTCTCTGGCGGCCT
modifications: 5mC motif strand C12
B11: Cen-CTCF motif C12 + opposite C2 5mC (dsDNA)
DNA 1: AGGCCGCCAGAGAGCGCCC
DNA 2: GGGCGCTCTCTGGCGGCCT
modifications: 5mC motif C12 and opposite C2
B12: Cen-CTCF motif C2 + opposite C2 5mC (dsDNA)
DNA 1: AGGCCGCCAGAGAGCGCCC
DNA 2: GGGCGCTCTCTGGCGGCCT
modifications: 5mC motif C2 and opposite C2
B13: Cen-CTCF opposite C2 5mC (dsDNA)
DNA 1: AGGCCGCCAGAGAGCGCCC
DNA 2: GGGCGCTCTCTGGCGGCCT
modifications: 5mC opposite strand C2
B14: Cen-CTCF motif C2 + opposite C12 5mC (dsDNA)
DNA 1: AGGCCGCCAGAGAGCGCCC
DNA 2: GGGCGCTCTCTGGCGGCCT
modifications: 5mC motif C2 and opposite C12
B15: Cen-CTCF motif C2 5mC (dsDNA)
DNA 1: AGGCCGCCAGAGAGCGCCC
DNA 2: GGGCGCTCTCTGGCGGCCT
modifications: 5mC motif strand C2
B16: H19 opposite C2 5mC (dsDNA)
DNA 1: GTTGCCGCGTGGTGGCAG
DNA 2: CTGCCACCACGCGGCAAC
modifications: 5mC opposite strand C2
B17: Cen-CTCF full methylation (dsDNA)
DNA 1: AGGCCGCCAGAGAGCGCCC
DNA 2: GGGCGCTCTCTGGCGGCCT
modifications: 5mC at C2 and C12 CpGs, both strands
B18: Cen-CTCF motif C12 + opposite C12 5mC (dsDNA)
DNA 1: AGGCCGCCAGAGAGCGCCC
DNA 2: GGGCGCTCTCTGGCGGCCT
modifications: 5mC motif C12 and opposite C12
B19: Cen-CTCF motif C2+C12 5mC (dsDNA)
DNA 1: AGGCCGCCAGAGAGCGCCC
DNA 2: GGGCGCTCTCTGGCGGCCT
modifications: 5mC motif strand C2, C12
B20: H19 motif C2 5mC (dsDNA)
DNA 1: GTTGCCGCGTGGTGGCAG
DNA 2: CTGCCACCACGCGGCAAC
modifications: 5mC motif strand C2
B21: Cen-CTCF full 5hmC (dsDNA)
DNA 1: AGGCCGCCAGAGAGCGCCC
DNA 2: GGGCGCTCTCTGGCGGCCT
modifications: 5hmC at CpGs, both strands
B22: Cen-CTCF motif strand 5hmC (dsDNA)
DNA 1: AGGCCGCCAGAGAGCGCCC
DNA 2: GGGCGCTCTCTGGCGGCCT
modifications: 5hmC motif strand

Target: T1, CTCF ZF1-11
Test: fluorescence polarization; 20 mM Tris-HCl pH 7.5, 300 mM NaCl, 5% glycerol, 0.5 mM TCEP, 25 C, 15 min, 5 nM FAM-oligo
Settings: protein: recombinant; tags: 6xHis-SUMO, used tagged and untagged (no change in results); label: FAM on motif strand

In order of rising binding signal:
1. B1  ~2 fold lower affinity vs N3
2. B2  ~2 fold lower affinity vs N3

Target: T2, CTCF FL
Test: as above
Settings: protein: recombinant; tags: 6xHis-SUMO, used tagged or removed (untagged for FL); label: FAM on motif strand

In order of rising Kd:
1. B3  ~5 nM
2. B4  ~200 nM
3. B5  ~200 nM

Target: T1, CTCF ZF1-11
Test: as above
Settings: protein: recombinant; tags: 6xHis-SUMO, used tagged and untagged (no change in results); label: FAM

For B6, the Kd was about 1000 nM.

Same assay, conditions: protein: recombinant; tags: 6xHis-SUMO, used tagged and untagged (no change in results); label: FAM on motif strand

In order of rising Kd:
1. B3  ~5 nM
2. B9  37 ± 2 nM
3. B7  77 ± 5 nM
4. B13  81 ± 5 nM
5. B16  89 nM
6. B11  243 ± 18 nM
7. B8  294 nM
8. B18  303 ± 28 nM
9. B20  346 nM
10. B10  428 ± 37 nM
11. B12  799 ± 110 nM
12. B14  839 ± 74 nM
13. B15  949 ± 165 nM
14. B19  1030 ± 114 nM
15. B17  1080 ± 217 nM

For B4, the Kd was 163 nM and ~200 nM.
In the case of B5, the Kd is reported as 149 nM and ~200 nM.

Target: T1, CTCF ZF1-11
Test: as above
Settings: protein: recombinant; tags: 6xHis-SUMO, used tagged and untagged (no change in results); label: FAM on motif strand
Remark: another data set of the same source

In order of falling binding signal:
1. B21  ~4 fold lower affinity vs N2
2. B22  ~4 fold lower affinity vs N2

Source: publication PMC10325916, “DNA strand asymmetry generated by CpG hemimethylation has opposing effects on CTCF binding”
